Assay results reported in PMC8458682 (Slas Discovery, 2022).

How the values were obtained:
SARS-CoV-2 M^pro [1] = biological target: T1, SARS-CoV-2 M^pro (Severe acute respiratory syndrome coronavirus 2, UniProt P0DTD1); test: biochemical; conditions: read-out: Screening: Inhibition @ 50 µM
SARS-CoV-2 M^pro [2] = biological target: T1, SARS-CoV-2 M^pro; type: biochemical
[3] = tested on: CC(C)C[C@H](NC(=O)[C@@H](NC(=O)[C@H](C)NC(=O)[C@H](CO)NC(=O)c1ccccc1N)C(C)C)C(=O)N[C@@H](CCC(N)=O)C(=O)N[C@@H](CO)C(=O)NCC(=O)N[C@@H](Cc1ccc(O)c([N+](=O)[O-])c1)C(=O)N[C@@H](CCCNC(=N)N)C(=O)O; test: purified protein, by the assay type; conditions: pH 7.4
[4] = tested on: CC(C)C[C@H](NC(=O)[C@@H](NC(=O)[C@@H](NC(=O)[C@@H](NC(=O)c1ccccc1N)C(C)C)C(C)C)[C@@H](C)O)C(=O)N[C@@H](CCC(N)=O)C(=O)N[C@@H](CO)C(=O)NCC(=O)N[C@@H](CNc1ccc([N+](=O)[O-])cc1[N+](=O)[O-])C(=O)N[C@@H](CCCNC(=N)N)C(=O)O; test: purified protein, by the assay type; conditions: pH 7.4
[5] = tested on: CC(C)C[C@H](NC(=O)[C@@H](NC(=O)[C@@H](NC(=O)[C@@H](NC(=O)c1ccccc1N)C(C)C)C(C)C)[C@@H](C)O)C(=O)N[C@@H](CCC(N)=O)C(=O)N[C@@H](CO)C(=O)NCC(=O)N[C@@H](Cc1ccc(O)c([N+](=O)[O-])c1)C(=O)N[C@@H](CCCNC(=N)N)C(=O)O; test: purified protein, by the assay type; conditions: pH 7.4

| Molecule | inhibition at 50 µM (SARS-CoV-2 M^pro [1]) [%] | Hill slope (SARS-CoV-2 M^pro [2]) | Km [3] [µM] | Vmax [3] [µM/min] | kcat [3] [s⁻¹] | kcat/Km [3] [M⁻¹ s⁻¹] | Km [4] [µM] | Vmax [4] [µM/min] | kcat [4] [s⁻¹] | kcat/Km [4] [M⁻¹ s⁻¹] | Km [5] [µM] | Vmax [5] [µM/min] | kcat [5] [s⁻¹] | kcat/Km [5] [M⁻¹ s⁻¹] |
| --- | --- | --- | --- | --- | --- | --- | --- | --- | --- | --- | --- | --- | --- | --- |
| CC(C)(C)NC(=O)N[C@H](C(=O)N1C[C@H]2[C@@H]([C@H]1C(=O)NC(CC1CCC1)C(=O)C(N)=O)C2(C)C)C(C)(C)C (some centres unmarked) [Boceprevir] | 55.5 ± 4.7 | 0.85 ± 0.05 | – | – | – | – | – | – | – | – | – | – | – | – |
| SARS-CoV-2 M^pro (Severe acute respiratory syndrome coronavirus 2) | – | – | 536.3 ± 156.6 | 2.39 | 0.133 ± 0.0279 | 248 ± 89.2 | 103.3 ± 18.5 | 0.426 | 0.0237 ± 0.0017 | 229 ± 44.2 | 197.9 ± 39.0 | 1.32 | 0.0733 ± 0.0077 | 370 ± 82.6 |
